To fix the notation:
B1: Compound 110 (peptide)
peptide: Ac-EGSAYCI[Trp(1-Me)]QDWGEHRC[Sar]EGKK([γGlu-Gly-γGlu-C18 diacid])-NH2
modifications: disulfide 6-16
SMILES: CC[C@H](C)[C@@H]1NC(=O)[C@@H](NC(=O)[C@H](Cc2ccc(O)cc2)NC(=O)[C@H](C)NC(=O)[C@H](CO)NC(=O)CNC(=O)[C@H](CCC(=O)O)NC(C)=O)CSSC[C@@H](C(=O)N(C)CC(=O)N[C@@H](CCC(=O)O)C(=O)NCC(=O)N[C@@H](CCCCN)C(=O)N[C@@H](CCCCNC(=O)CC[C@H](NC(=O)CNC(=O)CC[C@H](NC(=O)CCCCCCCCCCCCCCCCC(=O)O)C(=O)O)C(=O)O)C(N)=O)NC(=O)[C@H](CCCNC(=N)N)NC(=O)[C@H](Cc2c[nH]cn2)NC(=O)[C@H](CCC(=O)O)NC(=O)CNC(=O)[C@H](Cc2c[nH]c3ccccc23)NC(=O)[C@H](CC(=O)O)NC(=O)[C@H](CCC(N)=O)NC(=O)[C@H](Cc2cn(C)c3ccccc23)NC1=O
B2: Compound 101 (peptide)
peptide: Ac-EGSAICIWQDWGEHRCTEGK([γGlu-C16 diacid])-NH2
modifications: disulfide 6-16
SMILES: CC[C@H](C)[C@H](NC(=O)[C@H](C)NC(=O)[C@H](CO)NC(=O)CNC(=O)[C@H](CCC(=O)O)NC(C)=O)C(=O)N[C@H]1CSSC[C@@H](C(=O)N[C@H](C(=O)N[C@@H](CCC(=O)O)C(=O)NCC(=O)N[C@@H](CCCCNC(=O)CC[C@H](NC(=O)CCCCCCCCCCCCCCC(=O)O)C(=O)O)C(N)=O)[C@@H](C)O)NC(=O)[C@H](CCCNC(=N)N)NC(=O)[C@H](Cc2c[nH]cn2)NC(=O)[C@H](CCC(=O)O)NC(=O)CNC(=O)[C@H](Cc2c[nH]c3ccccc23)NC(=O)[C@H](CC(=O)O)NC(=O)[C@H](CCC(N)=O)NC(=O)[C@H](Cc2c[nH]c3ccccc23)NC(=O)[C@H]([C@@H](C)CC)NC1=O
B3: Compound 112 (peptide)
peptide: Ac-SEYCI[Trp(1-Me)]QDWGEHRC[Sar]EGAK([γGlu-Gly-γGlu-C18 diacid])-NH2
modifications: disulfide 4-14
SMILES: CC[C@H](C)[C@@H]1NC(=O)[C@@H](NC(=O)[C@H](Cc2ccc(O)cc2)NC(=O)[C@H](CCC(=O)O)NC(=O)[C@H](CO)NC(C)=O)CSSC[C@@H](C(=O)N(C)CC(=O)N[C@@H](CCC(=O)O)C(=O)NCC(=O)N[C@@H](C)C(=O)N[C@@H](CCCCNC(=O)CC[C@H](NC(=O)CNC(=O)CC[C@H](NC(=O)CCCCCCCCCCCCCCCCC(=O)O)C(=O)O)C(=O)O)C(N)=O)NC(=O)[C@H](CCCNC(=N)N)NC(=O)[C@H](Cc2c[nH]cn2)NC(=O)[C@H](CCC(=O)O)NC(=O)CNC(=O)[C@H](Cc2c[nH]c3ccccc23)NC(=O)[C@H](CC(=O)O)NC(=O)[C@H](CCC(N)=O)NC(=O)[C@H](Cc2cn(C)c3ccccc23)NC1=O
B4: Compound 7 (peptide)
peptide: Ac-ICIWQKWGEHRCT-NH2
modifications: disulfide 2-12
SMILES: CC[C@H](C)[C@H](NC(C)=O)C(=O)N[C@H]1CSSC[C@@H](C(=O)N[C@H](C(N)=O)[C@@H](C)O)NC(=O)[C@H](CCCNC(=N)N)NC(=O)[C@H](Cc2c[nH]cn2)NC(=O)[C@H](CCC(=O)O)NC(=O)CNC(=O)[C@H](Cc2c[nH]c3ccccc23)NC(=O)[C@H](CCCCN)NC(=O)[C@H](CCC(N)=O)NC(=O)[C@H](Cc2c[nH]c3ccccc23)NC(=O)[C@H]([C@@H](C)CC)NC1=O
B5: Compound 115 (peptide)
peptide: Ac-SEYCI[Trp(1-Me)]QDWGEHRC[Sar]EGKK([γGlu-Gly-γGlu-C18 diacid])-NH2
modifications: disulfide 4-14
SMILES: CC[C@H](C)[C@@H]1NC(=O)[C@@H](NC(=O)[C@H](Cc2ccc(O)cc2)NC(=O)[C@H](CCC(=O)O)NC(=O)[C@H](CO)NC(C)=O)CSSC[C@@H](C(=O)N(C)CC(=O)N[C@@H](CCC(=O)O)C(=O)NCC(=O)N[C@@H](CCCCN)C(=O)N[C@@H](CCCCNC(=O)CC[C@H](NC(=O)CNC(=O)CC[C@H](NC(=O)CCCCCCCCCCCCCCCCC(=O)O)C(=O)O)C(=O)O)C(N)=O)NC(=O)[C@H](CCCNC(=N)N)NC(=O)[C@H](Cc2c[nH]cn2)NC(=O)[C@H](CCC(=O)O)NC(=O)CNC(=O)[C@H](Cc2c[nH]c3ccccc23)NC(=O)[C@H](CC(=O)O)NC(=O)[C@H](CCC(N)=O)NC(=O)[C@H](Cc2cn(C)c3ccccc23)NC1=O
B6: Compound 113 (peptide)
peptide: Ac-ASGEYCI[Trp(1-Me)]QDWGEHRC[Sar]EGEK([γGlu-Gly-γGlu-C18 diacid])-NH2
modifications: disulfide 6-16
SMILES: CC[C@H](C)[C@@H]1NC(=O)[C@@H](NC(=O)[C@H](Cc2ccc(O)cc2)NC(=O)[C@H](CCC(=O)O)NC(=O)CNC(=O)[C@H](CO)NC(=O)[C@H](C)NC(C)=O)CSSC[C@@H](C(=O)N(C)CC(=O)N[C@@H](CCC(=O)O)C(=O)NCC(=O)N[C@@H](CCC(=O)O)C(=O)N[C@@H](CCCCNC(=O)CC[C@H](NC(=O)CNC(=O)CC[C@H](NC(=O)CCCCCCCCCCCCCCCCC(=O)O)C(=O)O)C(=O)O)C(N)=O)NC(=O)[C@H](CCCNC(=N)N)NC(=O)[C@H](Cc2c[nH]cn2)NC(=O)[C@H](CCC(=O)O)NC(=O)CNC(=O)[C@H](Cc2c[nH]c3ccccc23)NC(=O)[C@H](CC(=O)O)NC(=O)[C@H](CCC(N)=O)NC(=O)[C@H](Cc2cn(C)c3ccccc23)NC1=O
B7: Compound 114 (peptide)
peptide: Ac-SEYCI[Trp(1-Me)]QDWGEHRC[Sar]EGEK([γGlu-Gly-γGlu-C18 diacid])-NH2
modifications: disulfide 4-14
SMILES: CC[C@H](C)[C@@H]1NC(=O)[C@@H](NC(=O)[C@H](Cc2ccc(O)cc2)NC(=O)[C@H](CCC(=O)O)NC(=O)[C@H](CO)NC(C)=O)CSSC[C@@H](C(=O)N(C)CC(=O)N[C@@H](CCC(=O)O)C(=O)NCC(=O)N[C@@H](CCC(=O)O)C(=O)N[C@@H](CCCCNC(=O)CC[C@H](NC(=O)CNC(=O)CC[C@H](NC(=O)CCCCCCCCCCCCCCCCC(=O)O)C(=O)O)C(=O)O)C(N)=O)NC(=O)[C@H](CCCNC(=N)N)NC(=O)[C@H](Cc2c[nH]cn2)NC(=O)[C@H](CCC(=O)O)NC(=O)CNC(=O)[C@H](Cc2c[nH]c3ccccc23)NC(=O)[C@H](CC(=O)O)NC(=O)[C@H](CCC(N)=O)NC(=O)[C@H](Cc2cn(C)c3ccccc23)NC1=O
B8: Compound 5 (peptide)
peptide: Ac-ICIWQDWGKHRCT-NH2
modifications: disulfide 2-12
SMILES: CC[C@H](C)[C@H](NC(C)=O)C(=O)N[C@H]1CSSC[C@@H](C(=O)N[C@H](C(N)=O)[C@@H](C)O)NC(=O)[C@H](CCCNC(=N)N)NC(=O)[C@H](Cc2c[nH]cn2)NC(=O)[C@H](CCCCN)NC(=O)CNC(=O)[C@H](Cc2c[nH]c3ccccc23)NC(=O)[C@H](CC(=O)O)NC(=O)[C@H](CCC(N)=O)NC(=O)[C@H](Cc2c[nH]c3ccccc23)NC(=O)[C@H]([C@@H](C)CC)NC1=O
B9: Compound 103 (peptide)
peptide: Ac-EGSAYCI[Trp(1-Me)]QDWGEHK([AEEA-AEEA-γGlu-C16 diacid])C[Sar]E-NH2
modifications: disulfide 6-16
SMILES: CC[C@H](C)[C@@H]1NC(=O)[C@@H](NC(=O)[C@H](Cc2ccc(O)cc2)NC(=O)[C@H](C)NC(=O)[C@H](CO)NC(=O)CNC(=O)[C@H](CCC(=O)O)NC(C)=O)CSSC[C@@H](C(=O)N(C)CC(=O)N[C@@H](CCC(=O)O)C(N)=O)NC(=O)[C@H](CCCCNC(=O)COCCOCCNC(=O)COCCOCCNC(=O)CC[C@H](NC(=O)CCCCCCCCCCCCCCC(=O)O)C(=O)O)NC(=O)[C@H](Cc2c[nH]cn2)NC(=O)[C@H](CCC(=O)O)NC(=O)CNC(=O)[C@H](Cc2c[nH]c3ccccc23)NC(=O)[C@H](CC(=O)O)NC(=O)[C@H](CCC(N)=O)NC(=O)[C@H](Cc2cn(C)c3ccccc23)NC1=O
B10: Compound 109 (peptide)
peptide: Ac-EGSAYCI[Trp(1-Me)]QDWGEHRC[Sar]EGEK([γGlu-Gly-γGlu-C18 diacid])-NH2
modifications: disulfide 6-16
SMILES: CC[C@H](C)[C@@H]1NC(=O)[C@@H](NC(=O)[C@H](Cc2ccc(O)cc2)NC(=O)[C@H](C)NC(=O)[C@H](CO)NC(=O)CNC(=O)[C@H](CCC(=O)O)NC(C)=O)CSSC[C@@H](C(=O)N(C)CC(=O)N[C@@H](CCC(=O)O)C(=O)NCC(=O)N[C@@H](CCC(=O)O)C(=O)N[C@@H](CCCCNC(=O)CC[C@H](NC(=O)CNC(=O)CC[C@H](NC(=O)CCCCCCCCCCCCCCCCC(=O)O)C(=O)O)C(=O)O)C(N)=O)NC(=O)[C@H](CCCNC(=N)N)NC(=O)[C@H](Cc2c[nH]cn2)NC(=O)[C@H](CCC(=O)O)NC(=O)CNC(=O)[C@H](Cc2c[nH]c3ccccc23)NC(=O)[C@H](CC(=O)O)NC(=O)[C@H](CCC(N)=O)NC(=O)[C@H](Cc2cn(C)c3ccccc23)NC1=O
B11: Compound 108 (peptide)
peptide: {C18 diacid}-EGSEYCI[Trp(1-Me)]QDWGEHRC[Sar]E-NH2
modifications: disulfide 6-16
SMILES: CC[C@H](C)[C@@H]1NC(=O)[C@@H](NC(=O)[C@H](Cc2ccc(O)cc2)NC(=O)[C@H](CCC(=O)O)NC(=O)[C@H](CO)NC(=O)CNC(=O)[C@H](CCC(=O)O)NC(=O)CCCCCCCCCCCCCCCCC(=O)O)CSSC[C@@H](C(=O)N(C)CC(=O)N[C@@H](CCC(=O)O)C(N)=O)NC(=O)[C@H](CCCNC(=N)N)NC(=O)[C@H](Cc2c[nH]cn2)NC(=O)[C@H](CCC(=O)O)NC(=O)CNC(=O)[C@H](Cc2c[nH]c3ccccc23)NC(=O)[C@H](CC(=O)O)NC(=O)[C@H](CCC(N)=O)NC(=O)[C@H](Cc2cn(C)c3ccccc23)NC1=O

Starred links: 1 amine or outer side, 2 acyl side, 3 side chain; linkers in the order of their positions; H or OH if unused. Positions of bridges follow the written chain, without caps; N, C: chain ends. Non-standard residues stand in square brackets, D forms with d. Groups on a side chain read outwards from the residue. *: point of attachment. Trp(1-Me) = Cn1cc(C[C@H](N)C(=O)O)c2ccccc21; C18 diacid = O=C(O)CCCCCCCCCCCCCCCCC(=O)*; C16 diacid = O=C(O)CCCCCCCCCCCCCCC(=O)*; γGlu = O=C(O)[C@H](CCC(=O)[*:2])N[*:1]; AEEA = NCCOCCOCC(=O)O; Sar = CNCC(=O)O A value given as a limit tells only on which side of the number the result lay.

Chain of Human C3 (Complement tech cat #A113c) (P01024 23-1663 limits assumed): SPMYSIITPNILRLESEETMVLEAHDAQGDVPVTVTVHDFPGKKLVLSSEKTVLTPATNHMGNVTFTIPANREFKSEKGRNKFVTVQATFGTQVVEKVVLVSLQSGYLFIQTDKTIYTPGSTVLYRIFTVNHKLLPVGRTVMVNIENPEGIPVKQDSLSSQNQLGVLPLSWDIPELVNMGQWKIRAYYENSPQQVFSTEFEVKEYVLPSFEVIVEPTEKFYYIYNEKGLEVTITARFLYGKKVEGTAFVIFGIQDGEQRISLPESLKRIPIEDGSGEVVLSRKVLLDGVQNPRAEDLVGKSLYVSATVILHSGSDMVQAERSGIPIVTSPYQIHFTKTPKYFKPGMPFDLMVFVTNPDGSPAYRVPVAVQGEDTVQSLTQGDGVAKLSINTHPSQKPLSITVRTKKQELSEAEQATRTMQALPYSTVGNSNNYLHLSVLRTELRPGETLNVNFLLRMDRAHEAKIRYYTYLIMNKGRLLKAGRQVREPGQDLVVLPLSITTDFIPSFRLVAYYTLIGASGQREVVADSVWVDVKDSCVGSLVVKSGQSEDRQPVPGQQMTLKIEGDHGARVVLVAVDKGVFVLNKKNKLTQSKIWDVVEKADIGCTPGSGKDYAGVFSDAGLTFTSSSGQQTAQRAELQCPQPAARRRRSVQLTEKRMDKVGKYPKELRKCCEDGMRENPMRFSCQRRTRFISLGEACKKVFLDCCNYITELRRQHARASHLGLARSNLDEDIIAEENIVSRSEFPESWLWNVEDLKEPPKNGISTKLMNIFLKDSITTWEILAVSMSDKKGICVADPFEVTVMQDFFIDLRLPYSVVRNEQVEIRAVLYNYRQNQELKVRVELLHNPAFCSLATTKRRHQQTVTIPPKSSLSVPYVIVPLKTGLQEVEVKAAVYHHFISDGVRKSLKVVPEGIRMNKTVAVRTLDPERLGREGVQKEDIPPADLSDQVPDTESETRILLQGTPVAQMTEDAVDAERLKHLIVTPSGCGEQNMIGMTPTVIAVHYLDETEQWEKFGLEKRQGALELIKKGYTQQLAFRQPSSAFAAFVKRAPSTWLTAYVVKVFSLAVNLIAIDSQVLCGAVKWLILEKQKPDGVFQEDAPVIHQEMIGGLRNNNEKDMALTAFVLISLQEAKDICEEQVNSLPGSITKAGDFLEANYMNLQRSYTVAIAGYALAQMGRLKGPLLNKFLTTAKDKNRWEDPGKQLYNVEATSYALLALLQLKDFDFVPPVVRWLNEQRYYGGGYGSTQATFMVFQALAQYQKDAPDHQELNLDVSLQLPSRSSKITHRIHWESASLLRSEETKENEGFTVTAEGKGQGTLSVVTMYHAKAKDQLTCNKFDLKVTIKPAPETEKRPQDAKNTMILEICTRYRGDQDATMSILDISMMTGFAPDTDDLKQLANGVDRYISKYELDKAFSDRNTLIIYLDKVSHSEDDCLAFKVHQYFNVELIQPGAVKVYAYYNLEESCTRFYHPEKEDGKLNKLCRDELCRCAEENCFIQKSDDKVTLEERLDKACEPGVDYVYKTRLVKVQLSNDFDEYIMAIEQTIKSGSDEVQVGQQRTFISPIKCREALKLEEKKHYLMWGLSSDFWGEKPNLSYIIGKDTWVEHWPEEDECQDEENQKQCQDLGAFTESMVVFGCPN

The test concerns the target Human C3 (Complement tech cat #A113c) (human, UniProt P01024 23-1663). The test is described as follows: cell-based or functional assay.
Regarding B1, the “inhibition of hemolysis IC50” value was below 250 nM.
The result for B2 reads below 500 nM.
As to B3, the “inhibition of hemolysis IC50” value was below 500 nM.
With B4 the figure was below 1000 nM; with Ac-SAYCI[Trp(1-Me)]QDWGEHRC[Sar]EK([γGlu-Gly-Lys-γGlu-C18 diacid])-NH2 (disulfide 4-14) [Compound 105], below 100 nM.
Consider B5, for which the “inhibition of hemolysis IC50” value was below 250 nM.
Consider B6, for which the “inhibition of hemolysis IC50” value was below 500 nM.
In the case of B7, the “inhibition of hemolysis IC50” value was below 500 nM.
As to B8, the “inhibition of hemolysis IC50” value was below 250 nM.
Consider B9, for which the “inhibition of hemolysis IC50” value is below 100 nM.
Ac-SEYCI[Trp(1-Me)]QDWGEHRC[Sar]EGEK([γGlu-Lys-γGlu-C18 diacid])-NH2 (disulfide 4-14) [Compound 116]: the “inhibition of hemolysis IC50” value is below 500 nM.
Consider B10, for which the “inhibition of hemolysis IC50” value is below 250 nM.
The result for B11 reads below 500 nM.

The record behind these values is patent publication US11965039B2, “Compstatin analogues and their medical uses” (priority 2018, dated 2024).
